Assay results as given in PMC2932712, “Formation of Mobile Chromatin-Associated Nuclear Foci Containing HIV-1 Vpr and VPRBP Is Critical for the Induction of G2 Cell Cycle Arrest” (PLoS Pathogens, 2010).

Experiments:
Assay in all cases: FRET or BRET; BRET saturation in live HEK293T cells; fixed Rluc donor plasmid (10 ng), increasing eYFP acceptor plasmid (0 to 500 ng); coelenterazine H; BRET50 as relative affinity
Conditions in all cases: partners not purified
Rluc-Vpr (Q65R) = target: T1, Rluc-Vpr (Q65R) (HIV-1, UniProt P05928 1-96, Q65R)
T1 construct: BRET donor; also called the Q65R mutant; pCDNA3.1-Rluc-Vpr (Q65R); source: HEK293T, transfected, in live cells; not shown: renilla luciferase (Rluc), N-terminal, kept
T1 sequence: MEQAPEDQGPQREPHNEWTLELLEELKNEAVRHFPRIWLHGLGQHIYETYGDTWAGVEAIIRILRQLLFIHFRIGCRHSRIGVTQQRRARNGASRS

Rluc-Vpr (R80A) = target: T2, Rluc-Vpr (R80A) (HIV-1, UniProt P05928 1-96, R80A)
T2 construct: BRET donor; also called the R80A mutant; pCDNA3.1-Rluc-Vpr (R80A); source: HEK293T, transfected, in live cells; not shown: renilla luciferase (Rluc), N-terminal, kept
T2 sequence: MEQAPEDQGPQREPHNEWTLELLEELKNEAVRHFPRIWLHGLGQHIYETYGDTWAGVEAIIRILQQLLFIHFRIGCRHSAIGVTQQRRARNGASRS

Rluc-Vpr (WT) = target: T3, Rluc-Vpr (WT) (HIV-1, UniProt P05928 1-96)
T3 construct: BRET donor; also called pCDNA3.1-Rluc-Vpr (WT); source: HEK293T, transfected, in live cells; not shown: renilla luciferase (Rluc), N-terminal, kept
T3 sequence: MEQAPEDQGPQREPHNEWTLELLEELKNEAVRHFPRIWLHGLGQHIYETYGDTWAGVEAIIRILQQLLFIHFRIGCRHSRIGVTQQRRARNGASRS

B1: eYFP-Vpr (WT) (natural protein)
chain: MEQAPEDQGPQREPHNEWTLELLEELKNEAVRHFPRIWLHGLGQHIYETYGDTWAGVEAIIRILQQLLFIHFRIGCRHSRIGVTQQRRARNGASRS
notes: BRET acceptor; also called wild type eYFP-Vpr; pCDNA3.1-eYFP-Vpr(WT); source: HEK293T, transfected, in live cells; not shown: eYFP, N-terminal, kept
**Q.** How did the BRET50 (Rluc-Vpr (Q65R)) turn out when B1 was run?
**A.** Its BRET50 is 0.791 fluorescence/luminescence.

**Q.** What about the BRET50 (Rluc-Vpr (R80A)) of the same binder?
**A.** Its BRET50 is 0.326 fluorescence/luminescence.

**Q.** And the BRET50 (Rluc-Vpr (WT))?
**A.** The BRET50 was 0.397 fluorescence/luminescence.
